The text below walks through data of publication PMC3985386.

In assay [1] the target is Glutathiolated H-Ras^1-166 (Ras^SSG) (human) (UniProt P01112).
Assay [2] has as its target Truncated human H-ras (H-Ras^1-166), wild type (human) (UniProt P01112).

As for “Minimal catalytic domain of Son of Sevenless (SOS^cat) (domain or fragment)”, the rate of MANT-GDP dissociation from 1 uM Ras with SOS^cat at a 1:1 ratio, 25°C in assay [1] came out at 0.00185 s⁻¹; in assay [2], 0.00202 s⁻¹.
